Source: the supplement of paper PMC10567573
± gives the standard deviation.

Assay: protein stability index of a GFP-peptide fusion (GPS, HEK-293T) (PSI 1-6); higher = more stable
[1] = treatment: DMSO, c terminus: a fixed tail appended
[2] = treatment: MLN4924 1 uM, 8 h, c terminus: a fixed tail appended
[3] = treatment: DMSO, c terminus: native
[4] = treatment: MLN4924 1 uM, 8 h, c terminus: native
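Note: 24-mer peptide tiles fused after GFP, lentivirally expressed, FACS-sorted into six equal bins by GFP/DsRed ratio, decoded by Illumina sequencing, PSI is the read-weighted mean bin number.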

Row | Sequence | protein stability index [1] | protein stability index [2] | protein stability index [3] | protein stability index [4]
1 | SLGQMKELGVIFYNCSCLVLDLQR [PLD5] | 2.44 ± 0.64 | 2.93 ± 0.48 |  | 
2 | YLRDSSPAPCADGPAGGLADLSSG [PWWP2B] | 4.78 ± 0.2 | 4.8 ± 0.11 |  | 
3 | LVKHKRIHSREKRGDSVKVENPST [ZNF649] | 4.41 ± 0.32 | 4.54 ± 0.48 |  | 
4 | LSCLGQQQQEPPLAMGTVSLGQLP [PLAGL1] | 3.75 ± 0.32 | 3.59 ± 0.5 |  | 
5 | KEAVAALPPDVTTQSVMGFDPLPP [TCF25] | 4.79 ± 0.29 | 4.89 ± 0.26 |  | 
6 | VTLEASRENSKPRAILKPRKVCVG [PPP2R2B] | 3.54 ± 0.23 | 3.8 ± 0.32 |  | 
7 | SKAKPKPPKQAQKEQRKQMKGRGQ [TBC1D10A] | 5.02 ± 0.23 | 5.08 ± 0.31 |  | 
8 | SLFCYEDQEAVCLICAISHTHRAH [TRIM39] | 2.15 ± 0.19 | 2.19 ± 0.2 |  | 
9 | FRFIPVLFPNAKKEHVPTWLQNTH [TRAF3IP2] | 2.3 ± 0.61 | 2.6 ± 0.69 |  | 
10 | VRHNLGDTRLGQVSALPLPPAMKR [SPSB2] | 3.89 ± 0.097 | 3.98 ± 0.33 |  | 
11 | RKLSFSHSDHSSEMSLPEVQKDKY [SPATS1] | 4.85 ± 0.15 | 4.93 ± 0.2 |  | 
12 | LLEESDGEGEPGQGEGPEAGDAEV [NOP53] | 5.62 ± 0.22 | 5.61 ± 0.14 |  | 
13 | VISVVSYLILALLSVTISFRIYKS [RTN3] | 3.21 ± 0.65 | 2.8 ± 0.29 |  | 
14 | GREDEDGWETRGDRKARKPLVEKK [HES6] | 5.4 ± 0.14 | 5.34 ± 0.37 |  | 
15 | PLVYKAIQQGINAVNQEAMNNAQR [ACSBG2] | 3.331 ± 0.031 | 3.45 ± 0.23 |  | 
16 | GTFQVNFYHDHTKIIICSQNEEYL [PLK2] | 2.5 ± 1.1 | 2.21 ± 0.42 |  | 
17 | DIREEIRKVVQSLEQTAREILTLL [TSN] | 3.73 ± 0.94 | 3.57 ± 0.3 |  | 
18 | LTASRQSFRMAMGNPSEFFVDVM [DVL3] |  |  | 2.41 ± 0.65 | 2.54 ± 0.85
19 | KDILGFAVMFFIVFFAYAQLGYLL [PKD2L1] | 2.81 ± 0.42 | 2.93 ± 0.54 |  | 
20 | PCSKAVMSQALKATFSGFKKEQRR [ETS2] | 3.15 ± 0.21 | 3.27 ± 0.28 |  | 
21 | RHRIPEPEAAVLFRQMATALAHCH [TRIB3] | 2.48 ± 0.084 | 2.29 ± 0.19 |  | 
22 | IYVKLIEECTDLQKEGEFSTCFTE [OAS1] | 2.37 ± 0.2 | 2.26 ± 0.28 |  | 
23 | RQIQEEEDEKQRLQNEVRQLTEKL [SSNA1] | 4.98 ± 0.19 | 5.04 ± 0.21 |  | 

Row | Sequence | protein stability index [1] | protein stability index [2] | protein stability index [3] | protein stability index [4]
24 | SAWSNIQEAPLQDDSCLNNDIPHS [FAN1] | 4.98 ± 0.2 | 5.07 ± 0.067 |  | 
25 | RTDLEMQIEGLNEELAYLKKNHEE [KRT15] | 4.85 ± 0.3 | 4.77 ± 0.22 |  | 
26 | NNWDKWMAKKHKKIRLRCQKGIPP [TBC1D10A] | 2.74 ± 0.24 | 3.1 ± 0.12 |  | 
27 | LLRDRTGQQSDTAQLELYQLQVES [SCARA5] | 4.42 ± 0.37 | 4.56 ± 0.13 |  | 
28 | LVGDDAACIAYIRLTQYMDGSGMP [CAMK2D] | 2.13 ± 0.91 | 1.66 ± 0.13 |  | 
29 | HLIFSYSVWVLRDFPEDGLKIFTE [VPS39] | 2.98 ± 0.58 | 3.15 ± 0.54 |  | 
30 | SREMLQQSKILKVIRKNIVKKCLE [HSP90AB1] | 2.56 ± 0.31 | 2.42 ± 0.57 |  | 
31 | SQPATPTPLQSRTSIVQAAAGGVP [PDLIM7] | 4.6 ± 0.25 | 4.6 ± 0.19 |  | 
32 | NAAHLGDKRRDLAHLAAEVEGKCL [TRIM39] | 4.46 ± 0.22 | 4.5 ± 0.16 |  | 
33 | GTQPRATKHKCRQLTKASLKPRGC [SPACA9] | 3.81 ± 0.29 | 3.95 ± 0.19 |  | 
34 | PTELWPQEAVPLGLGLEDADWTQG [TEX19] | 4.56 ± 0.22 | 4.59 ± 0.22 |  | 
35 | NRGLILYRLGYFDDALEDFKKVLD [TTC32] | 2.05 ± 0.59 | 2.24 ± 0.14 |  | 
36 | MTTTFLQTSSSTFGGGSTRGGSLL [KRT15] | 2.8 ± 0.35 | 2.97 ± 0.46 |  | 
37 | YILDNETNFVVQVSVFIGVLIDLW [CLPTM1] | 2.74 ± 0.77 | 2.59 ± 0.7 |  | 
38 | NTPFQLSIAPPEAEGVVLSDSPDA [PPTC7] | 5.41 ± 0.15 | 5.37 ± 0.18 |  | 
39 | LPLSPGVLSSTPDHSFSLELGSEV [ATF4] | 3.72 ± 0.21 | 3.95 ± 0.5 |  | 
40 | AGAGWWVGAAYASLRRRGASAAAR [TRIM14] | 2.88 ± 0.22 |  |  | 
41 | TAFLLNIQLFEELQELLTHDTKDQ [HMOX1] | 2.32 ± 0.28 | 2.49 ± 0.44 |  | 
42 | ITAPTEVEVMDETNCQKVLNMWCC [CSNK1G3] | 2.84 ± 0.29 | 2.98 ± 0.29 |  | 
43 | LKVGGILVMPIEDQLTQIMRTGQN [PCMTD1] | 2.66 ± 0.12 | 2.24 ± 0.22 |  | 
44 | AEHWKHKKEESGRERKKNWGGQED [PBXIP1] | 5.24 ± 0.37 | 4.96 ± 0.4 |  | 
45 | AGRQSVSGRKNSTSKDLVTLGASS [C6orf223] | 4.4 ± 0.16 | 4.49 ± 0.13 |  | 
46 | NTDVSMENMVTVGFFSCMGTLCIG [KCNK9] | 2.81 ± 0.52 | 2.8 ± 0.61 |  | 

Row | Sequence | protein stability index [1] | protein stability index [2] | protein stability index [3] | protein stability index [4]
47 | KTESSGIETEPTVHHLPLSTEKVV [EPB41L3] | 5.21 ± 0.14 | 5 ± 0.25 |  | 
48 | VKILEPKTKEVQHNCQLHRISFCA [GULP1] | 2.33 ± 0.22 | 2.25 ± 0.17 |  | 
49 | IRLCDMRASALCDRHTKFFEEPED [PPP2R2B] | 3.59 ± 0.11 | 3.77 ± 0.2 |  | 
50 | MMEKILGPIPSHMIHRTRKQKYFY [CLK3] | 2.27 ± 0.84 | 2.12 ± 0.3 |  | 
51 | FTSPDYQQQCHEMAERLEDSVLKG [SDE2] | 3.01 ± 0.59 | 3.62 ± 0.7 |  | 
52 | FLVLEQFLTILPEELQSWVRGHHP [ZNF232] | 2.45 ± 0.55 | 2.5 ± 0.62 |  | 
53 | KSHVMDQAINNAINYLGAESLRPL [IKZF1] | 2.58 ± 0.24 | 2.49 ± 0.31 |  | 
54 | YDDVRRCCSSADICPKCWTLMTMA [PRIM1] | 3.34 ± 0.17 | 3.4 ± 0.36 |  | 
55 | PHPDLPAEEKEQLLHNDEYQETMV [USP39] | 5.35 ± 0.24 | 5.55 ± 0.21 |  | 
56 | CHSCQLYLPSTEFSVSSTSRRIYR [IQUB] | 2.45 ± 0.15 | 2.73 ± 0.54 |  | 
57 | PYTEKPRLWHTACASDEGEVIVFG [KLHDC2] | 2.51 ± 0.21 | 2.86 ± 0.23 |  | 
58 | GMDDFLGVYSMPAGTKVFEVPEMS [TLE6] | 3.08 ± 0.23 | 3.15 ± 0.25 |  | 
59 | RGLVGVGEASYSTIAPTLIADLFV [SPNS1] | 2.29 ± 0.62 | 2.13 ± 0.26 |  | 
60 | ALQAAAHASVDIKDVLDFYKQWKE [SMG5] | 3.19 ± 0.14 | 3.37 ± 0.31 |  | 
61 | WEELLTMKVEAKSHLQWQESRLKR [ZSCAN9] | 3.65 ± 0.18 | 3.59 ± 0.37 |  | 
62 | QSEHTMVLRCQLSAEEVRFPVSVT [C2CD2L] | 2.64 ± 0.33 | 2.49 ± 0.42 |  | 
63 | KDVKERFSGSLVAALSATGPRFLA [TMEM175] | 2.88 ± 0.55 | 2.73 ± 0.68 |  | 
64 | EMFPAAQQLYRHGKAYRFLFGFSA [JAGN1] | 2.5 ± 0.56 | 2.31 ± 0.29 |  | 
65 | HDVRLNGSAAGHVLVKDNGLGCKD [TENT5C] | 4.88 ± 0.38 | 4.92 ± 0.16 |  | 
66 | PLDDALLSFAHANCTLIISYQKPK [DPCD] | 2.17 ± 0.2 | 2.22 ± 0.21 |  | 
67 | MVGGLKRKHSDLEEEEERWEWSPA [SERTAD3] | 4.23 ± 0.4 | 4.56 ± 0.16 |  | 
68 | GVVDSEDLPLNISREMLQQSKILK [HSP90AB1] | 4.09 ± 0.22 | 4.14 ± 0.28 |  | 
69 | ETSVGTYESHSTSELEDLTEPEQR [TPD52L3] | 5.69 ± 0.14 | 5.45 ± 0.28 |  | 

Row | Sequence | protein stability index [1] | protein stability index [2] | protein stability index [3] | protein stability index [4]
70 | PAGAGPSPTFPALGIGMDSCVIPL [SEPHS2] | 3.14 ± 0.43 | 3.26 ± 0.34 |  | 
71 | LNPHVHLVGDDAACIAYIRLTQYM [CAMK2D] | 2.32 ± 0.38 | 2.29 ± 0.66 |  | 
72 | HSRVAKPHQREKIDKEIELHRILH [PLK2] | 3.42 ± 0.4 | 3.44 ± 0.07 |  | 
73 | YNPPKDDGSTYKIELEGISVMVMR [GAN] | 2.14 ± 0.28 | 2.24 ± 0.22 |  | 
74 | YNLSPEADESVLWQLFGPFGAVTN [ELAVL3] | 2.55 ± 0.28 | 2.51 ± 0.091 |  | 
75 | KRRVALSPVTENSTSLSFLDSCNS [MYBL2] | 3.65 ± 0.2 | 3.92 ± 0.34 |  | 
76 | LELLEEVLALGLRTDVGITHQHWQ [RSAD1] | 2.3 ± 0.72 | 2.13 ± 0.23 |  | 
77 | AAVPGTQLSPSPTPASQSPKKPPA [SNAP91] | 5.44 ± 0.25 | 5.37 ± 0.33 |  | 
78 | EVLKVQTHLENPTRYHLQQARRQQ [TFE3] | 3.77 ± 0.23 | 3.91 ± 0.33 |  | 
79 | GLMTQSSLETHHYVDCGGNSTAI [TMEM106C] |  |  | 3.18 ± 0.074 | 3.6 ± 0.13
80 | YLATEYLETHFRDVSSTEEFLELS [GAN] | 3.13 ± 0.29 | 3.2 ± 0.35 |  | 
81 | ILKRLLKEQHLWDVDLLDSKVIEI [DLC1] | 2.44 ± 1 | 2.02 ± 0.68 |  | 
82 | PSNKAPLLVLCEDHRGRMVKHQCC [EHMT1] | 3.13 ± 0.27 | 3.37 ± 0.34 |  | 
83 | KKFQSEKAAGSVSKSTQFEYAWCL [FIS1] | 2.12 ± 0.22 | 2.33 ± 0.13 |  | 
84 | DRVGTIKSKVVGDRENGSDNLPSS [TPD52L2] | 5.17 ± 0.29 | 5.17 ± 0.18 |  | 
85 | ERMRNSRDRLLNRYRQAGSSGPGN [RPAIN] | 4.12 ± 0.25 | 4.41 ± 0.27 |  | 
86 | FCPLSLWRWQLYAAQSTKSPWNFL [CLPTM1] | 2.66 ± 0.62 | 2.9 ± 0.51 |  | 
87 | SDVVDWLYHNVEGFTDRREARKYA [DVL3] | 3.23 ± 0.31 | 3.53 ± 0.33 |  | 
88 | REQKEKSPPDQPAVPHPPPSTPIK [ADD1] | 5.39 ± 0.12 | 5.53 ± 0.18 |  | 
89 | EPPPPGKHSNKKVMRTKSSEKAAN [CPXM2] | 5.09 ± 0.23 | 5.14 ± 0.81 |  | 
